These results are taken from paper PMC4774645.

Data set [1] can be described thus: mCherry fluorescence in media, 32 h time course. The conditions noted are these: glycan lost; control: wild type.
A short description of data set [2]: Western blot of culture media, 24 h. The conditions noted are these: glycan lost; control: wild type.
Data set [3] is described as follows: fluorogenic substrate kinetics with TIMP-1 titration. The conditions noted are these: glycan lost; control: wild type.
The nature of data set [4]: APMA or MMP-3 zymogen activation time course, Western. The conditions noted are these: glycan lost; control: wild type.
Data set [5] can be described thus: mCherry co-localisation with organelle-targeted eGFP. Conditions: glycan lost; control: wild type.
Data set [6] can be described thus: gelatin zymography of secreted protein. The conditions noted are these: glycan lost; control: wild type.
The nature of data set [7]: Western blot of cell lysate. The conditions noted are these: glycan lost; control: wild type.
The nature of data set [8]: hMMP-9-mCherry fluorescence microscopy. The conditions noted are these: control: untreated.
The nature of data set [9]: mCherry fluorescence in media, 24 h. The conditions noted are these: glycan changed form; control: untreated.

B1: human matrix metalloproteinase 9 (hMMP-9): mS38 (protein)
parent chain: MSLWQPLVLVLLVLGCCFAAPRQRQSTLVLFPGDLRTNLTDRQLAEEYLYRYGYTRVAEMRGESKSLGPALLLLQKQLSLPETGELDSATLKAMRTPRCGVPDLGRFQTFEGDLKWHHHNITYWIQNYSEDLPRAVIDDAFARAFALWSAVTPLTFTRVYSRDADIVIQFGVAEHGDGYPFDGKDGLLAHAFPPGPGIQGDAHFDDDELWSLGKGVVVPTRFGNADGAACHFPFIFEGRSYSACTTDGRSDGLPWCSTTANYDTDDRFGFCPSERLYTQDGNADGKPCQFPFIFQGQSYSACTTDGRSDGYRWCATTANYDRDKLFGFCPTRADSTVMGGNSAGELCVFPFTFLGKEYSTCTSEGRGDGRLWCATTSNFDSDKKWGFCPDQGYSLFLVAAHEFGHALGLDHSSVPEALMYPMYRFTEGPPLHKDDVNGIRHLYGPRPEPEPRPPTTTTPQPTAPPTVCPTGPPTVHPSERPTAGPTGPPSAGPTGPPTAGPSTATTVPLSPVDDACNVNIFDAIAEIGNQLYLFKDGKYWRFSEGRGSRPQGPFLIADKWPALPRKLDSVFEERLSKKLFFFSGRQVWVYTGASVLGPRRLDKLGLGADVAQVTGALRSGRGKMLLFSGRRLWRFDVKAQMVDPRSASEVDRMFPGVPLDTHDVFQYREKAYFCQDRFYWRVSSRSELNQVDQVGYVTYDILQCPED
Turning to B1, the “expression_or_secretion, fold_change” value in [1] is reported as “no change”. The expression_or_secretion result in [2] and in [7] was “no change” in each case. Further, the “other: inhibition by TIMP-1” value in data set [3] is “no change”. The “other: proteolytic processing” value in data set [4] is listed as “no change”. Further, in [5], the localisation_or_trafficking result is on record as “no change”. Moreover, the enzymatic_activity result in data set [6] is “no change”.

B2: human matrix metalloproteinase 9 (hMMP-9): tunicamycin (250 ng/ml) (protein)
parent chain: B1 parent chain
Turning to B2, the localisation_or_trafficking result in [8] (glycan lost) was “changes”.

B3: human matrix metalloproteinase 9 (hMMP-9): CST (1 mM) (protein)
parent chain: B1 parent chain
For B3, in [9], the expression_or_secretion entry was “decreases”. In addition, the localisation_or_trafficking result in [8] (glycan changed form) is reported as “changes”.
